According to article doi:10.1101/2020.08.13.232140, “Assembly and symmetry of the fungal E3BP-containing core of the Pyruvate Dehydrogenase Complex” (bioRxiv, 2020):

What was measured:
[1] = target: the molecule itself; test: cryo-EM structure; native PDC purified from N. crassa mitochondria; single-particle reconstructions under icosahedral and tetrahedral symmetry (classes X, Y, N)
[2] = target: the molecule itself; test: cryo-EM structure; reconstituted tE2+PX30 subcomplex of separately expressed components; icosahedral (map R1) and tetrahedral (maps R2X/Y) reconstructions
[3] = target: the molecule itself; test: cryo-EM structure; co-expressed tE2/PX261 subcomplex; reconstruction under icosahedral symmetry

B1: E2 of the native N. crassa pyruvate dehydrogenase complex (PDC core) (natural protein, UniProt P20285 29-458, looked up)
chain: ASYPPHTVVKMPALSPTMTSGGIGAWQKKPGDKIEPGEVLVEIETDKAQMDFEFQEEGVLAKILKDSGEKDVAVGNPIAILVEEGTDVNAFKDFTLKDAGGETSPAVPKDEPKNESTASAPTPAPTPAPEPENTSFTGRFQTALEREPNALPAAKRLAREKGIDLRNVKGSGPGGKITEEDVKKALASAPAAGAAAAAYTDVPISGMRKTIAARLKESVTENPHFFVSTNLSVSKLLKLRQALNSSADGRYKLSVNDFLIKAMGIASKRVPTVNSSWRDGVIRQFETVDVSVAVATPNGLITPIVKGVEGKGLESISAAVKELAKKARDGKLKPEEYQGGSISISNMGMNPAVQSFTAIINPPQAAILAVGAPQKVAVPVENEDGTTGVSWDEQIIVTASFDHKVVDGAVGAEWIRELKKVIENPLELLL
notes: E2 (acetyltransferase) component of the pyruvate dehydrogenase complex, Neurospora crassa, UniProt P20285; residues 232-458 identified in the native reconstruction; the recombinant E2 construct starts at residue 29; Strain WT STA74 / ATCC 14692; also called E2 core; source: endogenous, PDC purified from N. crassa mitochondria (sucrose cushion, sucrose gradient, SEC); copies: 60
[1]
  stoichiometry N: 60

B2: N. crassa E2 core-forming domain (tE2), separately expressed (domain or fragment, UniProt P20285 225-458, looked up)
chain: AAYTDVPISGMRKTIAARLKESVTENPHFFVSTNLSVSKLLKLRQALNSSADGRYKLSVNDFLIKAMGIASKRVPTVNSSWRDGVIRQFETVDVSVAVATPNGLITPIVKGVEGKGLESISAAVKELAKKARDGKLKPEEYQGGSISISNMGMNPAVQSFTAIINPPQAAILAVGAPQKVAVPVENEDGTTGVSWDEQIIVTASFDHKVVDGAVGAEWIRELKKVIENPLELLL
notes: E2 of the pyruvate dehydrogenase complex, Neurospora crassa, residues 225-458 of UniProt P20285 (core-forming catalytic domain); model built for 227-458; pRSET vector; the His6-tag is cleavable with thrombin; Icosahedral assembly; source: E. coli Rosetta2 (DE3), single expression
[2]
  binding result: binds

B3: untagged N. crassa E2 core-forming domain (tE2), co-expressed with PX constructs (domain or fragment, UniProt P20285 225-458, looked up)
chain: B2 chain
notes: E2 of the pyruvate dehydrogenase complex, Neurospora crassa, residues 225-458 of UniProt P20285 (core-forming catalytic domain); petDuet dual-expression vectors were built with the single-expression genes as template; PX stood in the His-tagged MCS1, tE2 untagged; also called untagged E2 core-forming domain; PDC core; source: E. coli Rosetta2 (DE3), co-expressed with His-tagged PX from petDuet, …
[3]
  binding result: binds
